Data published in IntAct's records for PubMed 31515488.

B1: Charged multivesicular body protein 7 (Homo sapiens), Q8WUX9 (parent)
chain: MWSPEREAEAPAGGDPAGLLPPEWEEDEERMSFLFSAFKRSREVNSTDWDSKMGFWAPLVLSHSRRQGVVRLRLRDLQEAFQRKGSVPLGLATVLQDLLRRGELQRESDFMASVDSSWISWGVGVFLLKPLKWTLSNMLGDNKVPAEEVLVAVELLKEKAEEVYRLYQNSPLSSHPVVALSELSTLCANSCPDERTFYLVLLQLQKEKRVTVLEQNGEKIVKFARGPRAKVSPVNDVDVGVYQLMQSEQLLSRKVESLSQEAERCKEEARRACRAGKKQLALRSLKAKQRTEKRIEALHAKLDTVQGILDRIYASQTDQMVFNAYQAGVGALKLSMKDVTVEKAESLVDQIQELCDTQDEVSQTLAGGVTNGLDFDSEELEKELDILLQDTTKEPLDLPDNPRNRHFTNSVPNPRISDAELEAELEKLSLSEGGLVPSSKSPKRQLEPTLKPL
partner: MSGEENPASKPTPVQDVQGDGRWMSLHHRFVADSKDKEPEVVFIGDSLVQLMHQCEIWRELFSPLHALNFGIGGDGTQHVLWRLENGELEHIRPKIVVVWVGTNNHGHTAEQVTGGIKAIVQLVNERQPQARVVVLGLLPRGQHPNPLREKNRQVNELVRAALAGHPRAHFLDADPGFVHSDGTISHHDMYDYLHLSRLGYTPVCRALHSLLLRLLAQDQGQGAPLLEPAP
B2: Hematopoietic prostaglandin D synthase (Homo sapiens), O60760 (parent)
chain: MPNYKLTYFNMRGRAEIIRYIFAYLDIQYEDHRIEQADWPEIKSTLPFGKIPILEVDGLTLHQSLAIARYLTKNTDLAGNTEMEQCHVDAIVDTLDDFMSCFPWAEKKQDVKEQMFNELLTYNAPHLMQDLDTYLGGREWLIGNSVTWADFYWEICSTTLLVFKPDLLDNHPRLVTLRKKVQAIPAVANWIKRRPQTKL
partner: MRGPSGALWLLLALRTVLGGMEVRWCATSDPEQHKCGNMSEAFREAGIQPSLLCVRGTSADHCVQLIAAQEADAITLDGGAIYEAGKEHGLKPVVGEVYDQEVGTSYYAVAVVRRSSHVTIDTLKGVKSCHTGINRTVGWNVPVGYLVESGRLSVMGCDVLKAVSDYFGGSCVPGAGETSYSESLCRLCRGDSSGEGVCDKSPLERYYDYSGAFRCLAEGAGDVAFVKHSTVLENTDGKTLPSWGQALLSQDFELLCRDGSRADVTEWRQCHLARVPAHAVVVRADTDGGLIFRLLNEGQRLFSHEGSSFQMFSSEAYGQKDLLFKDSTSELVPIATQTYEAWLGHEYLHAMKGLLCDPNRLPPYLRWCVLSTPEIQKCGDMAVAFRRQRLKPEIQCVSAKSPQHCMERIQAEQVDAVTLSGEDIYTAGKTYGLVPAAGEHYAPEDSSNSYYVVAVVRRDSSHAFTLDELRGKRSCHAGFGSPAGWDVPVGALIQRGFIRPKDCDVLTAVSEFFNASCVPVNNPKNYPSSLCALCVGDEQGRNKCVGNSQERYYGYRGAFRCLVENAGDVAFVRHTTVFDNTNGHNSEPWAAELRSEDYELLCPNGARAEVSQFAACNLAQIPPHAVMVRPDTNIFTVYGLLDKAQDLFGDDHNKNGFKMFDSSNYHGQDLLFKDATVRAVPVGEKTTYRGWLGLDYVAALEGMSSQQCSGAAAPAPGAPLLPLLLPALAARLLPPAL
B3: Proto-oncogene serine/threonine-protein kinase mos (Homo sapiens), P00540 (parent)
chain: MPSPLALRPYLRSEFSPSVDARPCSSPSELPAKLLLGATLPRAPRLPRRLAWCSIDWEQVCLLQRLGAGGFGSVYKATYRGVPVAIKQVNKCTKNRLASRRSFWAELNVARLRHDNIVRVVAASTRTPAGSNSLGTIIMEFGGNVTLHQVIYGAAGHPEGDAGEPHCRTGGQLSLGKCLKYSLDVVNGLLFLHSQSIVHLDLKPANILISEQDVCKISDFGCSEKLEDLLCFQTPSYPLGGTYTHRAPELLKGEGVTPKADIYSFAITLWQMTTKQAPYSGERQHILYAVVAYDLRPSLSAAVFEDSLPGQRLGDVIQRCWRPSAAQRPSARLLLVDLTSLKAELG
partner: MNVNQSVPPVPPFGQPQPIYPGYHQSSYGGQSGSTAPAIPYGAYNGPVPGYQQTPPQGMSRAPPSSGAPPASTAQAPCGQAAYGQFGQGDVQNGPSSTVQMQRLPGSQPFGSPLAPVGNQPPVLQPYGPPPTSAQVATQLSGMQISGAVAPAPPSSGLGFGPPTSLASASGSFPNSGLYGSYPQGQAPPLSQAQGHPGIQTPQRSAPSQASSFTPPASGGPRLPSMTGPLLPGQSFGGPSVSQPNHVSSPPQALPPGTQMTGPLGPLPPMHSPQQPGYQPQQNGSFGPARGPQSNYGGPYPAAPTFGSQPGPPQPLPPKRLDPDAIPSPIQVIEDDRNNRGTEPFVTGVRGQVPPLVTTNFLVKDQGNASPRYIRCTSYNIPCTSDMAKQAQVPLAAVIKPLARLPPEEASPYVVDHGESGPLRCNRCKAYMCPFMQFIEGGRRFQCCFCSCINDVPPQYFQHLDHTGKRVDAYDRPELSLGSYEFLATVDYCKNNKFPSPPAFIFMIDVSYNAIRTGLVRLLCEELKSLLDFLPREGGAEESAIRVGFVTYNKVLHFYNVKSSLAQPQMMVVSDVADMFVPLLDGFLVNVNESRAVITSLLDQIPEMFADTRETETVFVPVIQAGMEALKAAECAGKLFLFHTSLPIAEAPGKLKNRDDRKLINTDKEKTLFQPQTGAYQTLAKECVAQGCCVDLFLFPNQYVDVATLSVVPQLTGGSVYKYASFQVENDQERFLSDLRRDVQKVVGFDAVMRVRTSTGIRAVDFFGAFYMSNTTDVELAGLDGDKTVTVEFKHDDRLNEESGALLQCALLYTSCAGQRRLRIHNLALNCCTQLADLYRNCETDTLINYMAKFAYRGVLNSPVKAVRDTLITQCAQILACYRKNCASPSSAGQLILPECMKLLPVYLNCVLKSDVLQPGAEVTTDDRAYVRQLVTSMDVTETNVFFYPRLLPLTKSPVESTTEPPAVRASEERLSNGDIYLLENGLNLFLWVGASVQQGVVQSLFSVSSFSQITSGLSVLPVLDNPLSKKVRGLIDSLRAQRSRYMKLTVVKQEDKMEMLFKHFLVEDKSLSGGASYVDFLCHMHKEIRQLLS
B4: Ensconsin (Homo sapiens), Q14244 (parent)
chain: MAELGAGGDGHRGGDGAVRSETAPDSYKVQDKKNASSRPASAISGQNNNHSGNKPDPPPVLRVDDRQRLARERREEREKQLAAREIVWLEREERARQHYEKHLEERKKRLEEQRQKEERRRAAVEEKRRQRLEEDKERHEAVVRRTMERSQKPKQKHNRWSWGGSLHGSPSIHSADPDRRSVSTMNLSKYVDPVISKRLSSSSATLLNSPDRARRLQLSPWESSVVNRLLTPTHSFLARSKSTAALSGEAASCSPIIMPYKAAHSRNSMDRPKLFVTPPEGSSRRRIIHGTASYKKERERENVLFLTSGTRRAVSPSNPKARQPARSRLWLPSKSLPHLPGTPRPTSSLPPGSVKAAPAQVRPPSPGNIRPVKREVKVEPEKKDPEKEPQKVANEPSLKGRAPLVKVEEATVEERTPAEPEVGPAAPAMAPAPASAPAPASAPAPAPVPTPAMVSAPSSTVNASASVKTSAGTTDPEEATRLLAEKRRLAREQREKEERERREQEELERQKREELAQRVAEERTTRREEESRRLEAEQAREKEEQLQRQAEERALREREEAERAQRQKEEEARVREEAERVRQEREKHFQREEQERLERKKRLEEIMKRTRRTEATDKKTSDQRNGDIAKGALTGGTEVSALPCTTNAPGNGKPVGSPHVVTSHQSKVTVESTPDLEKQPNENGVSVQNENFEEIINLPIGSKPSRLDVTNSESPEIPLNPILAFDDEGTLGPLPQVDGVQTQQTAEVI

Variants of: B1
Settings: with pa1b3_human PAFAH1B3, Q15102
In the case of MWSPEREAEAPAGGDPAGLLPPEWEEDEERMSFLFSAFKRSREVNSTDWDSKMGFWAPLVLSHSRRQGVVRLRLRDLQEAFQRKGSVPLGLATVLQDLLRRGELQRESDFMASVDSSWISWGVGVFLLKPLKWTLSNMLGDNKVPAEEVLVAVELLKEKAEEVYRLYQNSPLSSHPVVALSELSTLCANSCPDERTFYLVLLQLQKEKRVTVLEQNGEKIVKFARGPCAKVSPVNDVDVGVYQLMQSEQLLSRKVESLSQEAERCKEEARRACRAGKKQLALRSLKAKQRTEKRIEALHAKLDTVQGILDRIYASQTDQMVFNAYQAGVGALKLSMKDVTVEKAESLVDQIQELCDTQDEVSQTLAGGVTNGLDFDSEELEKELDILLQDTTKEPLDLPDNPRNRHFTNSVPNPRISDAELEAELEKLSLSEGGLVPSSKSPKRQLEPTLKPL [R228C], the “effect of a mutation on the interaction” value is reported as “with no effect”.

Variants of: B2
Settings: with trfm_human MELTF
MPNYKLTYFNMRGRAEIIRYIFAYLDIQYEDHRIEQADWPEIKSTLPFGKIPILEVDGLTLHQSLAIARYLTKNTDLAGNTEMEQCHVDAIVDTLDDFMSCFPWAEKKQDVKEQMFNELLTYNAPHLTQDLDTYLGGREWLIGNSVTWADFYWEICSTTLLVFKPDLLDNHPRLVTLRKKVQAIPAVANWIKRRPQTKL [M128T] was tested, and the “effect of a mutation on the interaction” value was “disrupting interaction strength”.

Variants of: B3
Settings: with sc24c_human SEC24C
For MPSPLALRPYLRSEFSPSVDARPCSSPSELPAKLLLGATLPRAPRLPRRLAWCSIDWEQVCLLQRLGAGGFGSVYKATYRGVPVAIKQVNKCTKNRLASRRSFWSELNVARLRHDNIVRVVAASTRTPAGSNSLGTIIMEFGGNVTLHQVIYGAAGHPEGDAGEPHCRTGGQLSLGKCLKYSLDVVNGLLFLHSQSIVHLDLKPANILISEQDVCKISDFGCSEKLEDLLCFQTPSYPLGGTYTHRAPELLKGEGVTPKADIYSFAITLWQMTTKQAPYSGERQHILYAVVAYDLRPSLSAAVFEDSLPGQRLGDVIQRCWRPSAAQRPSARLLLVDLTSLKAELG [A105S], the “effect of a mutation on the interaction” value was “with no effect”. In the case of MPSPLALRPYLRSEFSPSVDARPCSSPSELPAKLLLGATLPRAPRLPRRLAWCSIDWEQVCLLQRLGAGGFGSVYKATYRGVPVAIKQVNKCTKNRLASRRSFWAELNVARLRHDNIVRVVATSTRTPAGSNSLGTIIMEFGGNVTLHQVIYGAAGHPEGDAGEPHCRTGGQLSLGKCLKYSLDVVNGLLFLHSQSIVHLDLKPANILISEQDVCKISDFGCSEKLEDLLCFQTPSYPLGGTYTHRAPELLKGEGVTPKADIYSFAITLWQMTTKQAPYSGERQHILYAVVAYDLRPSLSAAVFEDSLPGQRLGDVIQRCWRPSAAQRPSARLLLVDLTSLKAELG [A123T], the “effect of a mutation on the interaction” value is reported as “disrupting interaction strength”.

Variants of: B4
Settings: with ccdb1_human CCNDBP1, O95273
ccdb1_human CCNDBP1, O95273, sequence (O95273 whole entry): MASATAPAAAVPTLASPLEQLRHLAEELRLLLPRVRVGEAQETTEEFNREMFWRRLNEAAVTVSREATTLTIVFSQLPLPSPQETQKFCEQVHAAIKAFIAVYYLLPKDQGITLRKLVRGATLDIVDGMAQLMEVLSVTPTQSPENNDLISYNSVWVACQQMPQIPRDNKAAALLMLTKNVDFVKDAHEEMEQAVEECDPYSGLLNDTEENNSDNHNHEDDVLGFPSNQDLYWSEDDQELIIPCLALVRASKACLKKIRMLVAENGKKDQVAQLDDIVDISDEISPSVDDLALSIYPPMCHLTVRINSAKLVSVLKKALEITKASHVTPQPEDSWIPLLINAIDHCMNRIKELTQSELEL
For M429T, the “effect of a mutation on the interaction” value was “with no effect”. With P649L the “effect of a mutation on the interaction” value was “with no effect”.
